Experiment: soluble on expression in E. coli; label from the status in PepcDB or PDB records
In the case of “MAHHHHHHMSGYLKVLSPDGRWETRYIEIDDAKLRIWRTKGDKESSAAVVKELDLKCATLREVSEPNTWAVQPEKAEATYFQADGEERKTEWMDTLRHYNSSSSGSEKVTLRDFEKKFVLGKGSYGKVFMVVKKDTDKWYAMKEMSAEKMRQAEIKAPFAERIILEEIDHPFIVHLHYSFQEQGNLYMILDLLAGGELFTYIEQHAPLDEEVVKFYAAEVALALGYLHSRNIIYRDLKPENVVFDRDGHACLTDFGLAKANVHEPNAVTYCGTNEYLAPELLKGVPHGKAVDWWSLGLMMCEMLFNDLPFYDENPMQMQMKILTEDVAFPPHIQITEETKDLIRCLLNKNPERRLQTLEAFKAHKCFSNLDFCLLEARKLKAPITPDPNPAHNFAKEFTSEVIVQNESPSQAVVTLAGYTYDRDLSEQEKSPSHSPTIAEELRQRRASKKRPTNGSDAASPPVTGENRTSNSSPAGVPMKQAAPGPVKKVEHHIPAKVAPQAARKKLTGNKSFDKPTK”, the “soluble on expression in E. coli” value is reported as “soluble”.
In the case of “MAHHHHHHMSLLKADQLRRDLFIKYSDKIAELLGETEECSPTEEQREKEEIETTEQRGLSSLPKRFRISYPRQHLLRQRAMQMPPAADVGDAENSPASASNSTCPPLGETATDEDENVETIWVELDEEEKRPVYNEPYPSVKRMMRRMQDESLRLLMREARIPVTPHQGDAYLLQRMEVLQQLEKNIGDDRIKILARLQKMDGKLHTCE”, the “soluble on expression in E. coli” value is reported as “soluble”.
With “MAHHHHHHMSPVLVPTACEDWSLNIDDESAKRFWWNNTYSITLWEETLNIEQQAEKITDGDVWSKFIDLQLRCAFKICSICHSPEGNADMKICCYCGNTVHENCSEPAAPEQIMWKPANLAYVEHMRACFQCQAVNYKEPLAPQSPSEWDNARRAAKRALTISDEYPPATVERIQKLLQRAETTSNDAVLLSELKSLVQSYFQSPQSLQFLRKERVASKGGGIGVVAARKIPAFSIIGVYPGYLDFMSGEQAKCGRPVPKYALMEYNCANYFNEVFVELQTTFTPFINEPNVDEKSNCAWIQEPHRKNGRLSVICVRDIQEGEELTIGYGPIYPRTYPYCYDAYACHQIEGHTTHPCYSLWHWPTLQEADARFVCHIGYIERDDCYVLWKNET” the “soluble on expression in E. coli” value was “soluble”.
For “MAHHHHHHMSRCNVAACFFPQQYGCETECGSESLLRAVLGDNANRVDSVMNHCTPHCVAAAIARCIREGPNFPHHLHVIAGVGRFKEIMIACLIDMIPQPLFSIDVPLQCMMFASEEGSVVCKLFDSESMPSLLSTANDMEQIFLVSLRHERRMVTIVAVEQLSTSLVASMLGSVCSNIWVLLSGLHTTEREMSLLNEAMAIRDAVREFSSAVGAVSTELHVEEESSAHATPPVAVEVVHPSAPSLKGVEDNDTAVVVSSAEAETVSDTQSVARRLEESQCEVNQLRKKLEEAEDTIHRFRAAERRAEEEKKNLSLAESLAATTPVATSERAESLFCEGTGGLDSQNSKGNENWVGERTVVATQRELSAMQAKLSELQRCLVETSEGNLGRVREFQCRELEWQRELRRRTEERDVALQECERLRGATPCHGSQEKVFSRAVETPHAHQEQELDNLLSRIRSITAAHGNAAHSEFPMLFSSQRSAGGAGQPLSPRGDYRRFASLERYRS”, the “soluble on expression in E. coli” value was “not soluble”.
With “MAHHHHHHMSRVSVLAGQKPKPKESFKFLRRDEGRLSYSAATAESPSKNAANGADGANINRERRDSKALREAIAYDMRNAKSHDPLGEVVVAVPRKAPPPTRAVSAPPPNTNASSGTEKPAAGAPPQRRQPARAANPKKPEWVDPEIPPSPLLQAPTHTVVERPADNYFETSYSDSHSGGAAALSSGIGRSVSRGSDTNGADLGRYGGLTPRSAAMGAPRYASLKYEESSAAPLSGQDRNYFRRPLYTRDPALGSDAHSPAGSRVREEDELIASLEQEIKAAQKERNHYADARQQLDREKQRFESYRYGARQQMEDERADAGDRRSREQRDAQKDLRATEERFKNVSALLVAERETNRRLSQENDSLRTQLEDLTSTMREAHRIHKAEVARMRRDIDSLTRRNAELLAMAKEQQLQCLEGASASPSTRQSSSSPFSVSLDPSAQRASSASCEGGYDEDNDAAAVGERRASRAAPLAVMDFTPRASSREAAAREKRNRQMQNRMQAEEQAMEERKRHREQYIAGRKREEQEEKTRHRVAVDAAAAATACRRSEEDDLRKAATAAEKVVEERKMSGHPARTPRMQSGALSVKRRPSVSAVHAPVAPKRHHVPTREDLIGDMEEFPTEKFCDDDVVSQTALGDNSNKKEVLYRSGKREIHYANGTVKVVLPSGHTTLRFTNGDVKCTFPSGKSTYWYDAAQTMHTQMPDGVQAFEFRSTGQTEKHLPDGSKEILYPDGIYKMVRPDGSDETFYPDGEPMEE” the “soluble on expression in E. coli” value was “soluble”.
For “MAHHHHHHMSSLDSVREDILDVFHIFDEDGSGSITMQELKRAIYTITGIRISRIDLSILVRTCKEEMLKESARKSEAGANVAGKAGEKLWTPEPESEVNTVDPQLFAAVVLKTLNRRTQEQELLFTFRLLEDKDYPGFITKDSLKRASADIDEHLTDQEVNEMFDKLVTGVSAAAIDFVTFSSLMETLRKSI”, the “soluble on expression in E. coli” value was “soluble”.
For “MAHHHHHHMSSLKYIENSINSNIRVDGRTLSTYRTIEINKNILVSADGSSSVMNEENNVICGIKLSLLTPSLDAPDEGVINLQIDCPASVVANRIKKDHLQIMSSIIYDLCLKNNIDRKKMCILPSTFVWGVDINVMVLNAGGGLLDIISMAIYVALKDTVVPVVKPKKKIDESNTFHHTKCADYQVEIVENQKTNFPYENVPICVSIGEINNKYVYDMSKVEEELVENIFVVAVTSSGKCVAFHKLYGISMEIASILNMTENSSRISHHLFEKINEAIAKIETRSVLV”, the “soluble on expression in E. coli” value was “not soluble”.
With “MAHHHHHHMSSQAQQRAPAYAPRDTHAERLAAADREAAARRDSSTNWTWYPEYHLAPYMGWMNDPTGLVHFRDHYHVFYQYHPYSAEWGPMHWGHMTSEDLVHWQHEKVALAPGDACDRNGCFSGTAVVHEDRMYVFYTGHFALDAATPSNPDAIFEQQCVAVSSDGVNFEKLGAVVRPPPGYVHFRDPKVWQQDGRWWMVCGARDVTKDLGQLLLFTTEDLLKWDDTNWQVLGMTEDKNVFMWECPDYFTIGSREDMKLLLFCPQGKKASEYNYRNRFQNGYTVGQWMPGGPWTVQREFRELDRGHDFYAAQTFLAADGQRRMLMAWCNMWESPMPTKQYGWSGCLTLPRELSYNEATGQLCMLPARELVGLRTPEMMIVPSLLVENNSDAQILENCTAYELDIAFNMETSTAEKYGLWLGSGAELYVDAQSKRLVLNRHYPQHMLSGYRSCELPIGLLLQLHVFIDRSSIEVFVNNGEATFSSRVFPDEGDRALRVFSVNGTADMVGGTMWKLKATVRH” the “soluble on expression in E. coli” value was “not soluble”.
In the case of “MAHHHHHHMSTDIPVNDNETNSSFKLKSEINSIENELKNWFLKRRLNMEINYSLKKLFDSYNFVGLSINNNINLKDKMLWYDIVNGKPELEDTLSMDAKEYKADQYSYLWNKSTTIDNACRLVGSIYFRCLKNNFQLKKSEREHKCIQNFINFNNCRNALKLQQANNIKDSLIKQNMEDNIAKALFERRSLLLDMLEDFK”, the “soluble on expression in E. coli” value is reported as “not soluble”.
For “MAHHHHHHMSTSYSVTTYMTTTYVNCEDVSGSDSEYSEYDLVNEQMQDFLLDSEDTSDGDADVEDILGFGAVFMGGLMPTRSMDAHQACAWRRTTKPNRRRIAKKSESCSSLSNAARLTASSSTTMLSDLDTVVREAVVTGGAAQRRGTRKQRRAMASGERRWLVPPLSAVSVESTDGGNDGRRQLPWFTVVFDLDETLVGARYGPIHLRPHVGELLRSLHRLPVEIIVWTAGTAHYVNPILHAIGQACGRRQWFHHIISRHKRWYRDTNVSVKDLRQLGRPLDRLVMVENNPISALPQPSLCVLLEDYLQPNAADESLLVLKGLLERLALQYERAARTSSATGTCEQASEEECPAQRHTRSPRNTLRDATATRTTALPSLELLVRDDAALQLVEFRMEDILKEDGVPMLQQAEMRELVGGADTLRCLCLCYTPPLLPSSTAVAPQGTAALMSCVSMAMRSYGSVNPLRPL”, the “soluble on expression in E. coli” value was “not soluble”.
In the case of “MAHHHHHHMSTYDKSDQIGYDETDHTLNAELEEMMARTPPEVQRHLQHRIHDGILQRMKEETTRKCITFIQKYEQCVNSQKPYNMKLCYPHRDAMNGCAQEVNREENYQRYRIMYLRGELLKYHEKRTAGKMEAFKVRAPDAIRAWKHDYAPKYMHIMEDLGVAPLGTAAGTAEESTNSK”, the “soluble on expression in E. coli” value is reported as “not soluble”.
For “MAHHHHHHMSVAPKRTAELLWLEQQRARQYEQHRKRVEQQKPCVDNKTPRNLSLSNKRALMEQERRKCIDEENRRLVVNMSAIMERGGGIDNKEPWRRTNGPRDAEIRRRREQQKLAEENLKLLHRLENVKPVYRLEKWEMERDENEILVDRISRYPYIPMNRRKGVGE”, the “soluble on expression in E. coli” value was “soluble”.
With “MAHHHHHHMSVTASAAAAAAAAAASPRPPSSALYTERLFYAVLKQGNPSEARVEALAALALRHLPKSAETWAALRKALMEQSDLDGAPNRTLWYVLDALIKHAPHVFVPLVAPRLLEYTIQQLPWELAGHRGQTLLWFEALVLSWEKVLPQRLYSAVRQHAVQSRSGAELHDLLEAAENSVDDGTSASPADLQQLRDAWDAVQYMGEQEAGKSVFHARLIAAAVVVADEDGNSSLSPSPPVSGLYATPTGHNGRTAGAGTSGADIANTQQQQQQQEEDEYTPDFIEGAKPRELPKLDLPKLKRRREGRRRPREEDLGM” the “soluble on expression in E. coli” value was “soluble”.
For “MAHHHHHHMTESRWITEALVQFSASPIWLTPIDNFVDDNCCIFSNESEMQLEYTVAHNKFKKLIDSLLTCFLMELGVSMETAVEALQSSLAVSVQTSEGLSEQQAAKKLLKQIFNADNFSHFHTMMVKRNLELDILANAALSSDGVCGNGGAALSTEEVEKETRARARVQRAIDVNGDVSEDDALRRAIEVSLQDGTAQQQVQAYRKACIQEDANLQLTAVEHQANSEKAQLEAVLQTQSAQNLPEGEHFRQNHVEPINKQKESQLQPIRAHAMSGKGQKGCDEAEPQKANFNSPESPCPLPALQVPAAASAPVAAPVSVPALPSIGQRQAALPSIPSTITASVLKSAPSAPAHQAHGTAVSATPAPTPIPTKEELEKRAQYMREQREKLLARNRASRQEQLNTFLQNNSSSTTTSSSAALAATGAAQSVTVEIARRLRGDLIGEARKSSG”, the “soluble on expression in E. coli” value was “soluble”.
With “MAHHHHHHMTNFETFQQFYVRDWTPKARPVDAAASVVAPCDGQVLAVNANVESTSLVQVKGLTYGMRSLLQDTPPPLNTDTHRRVAVVLHMRNKDFHHVIAPLSFACEKSIYVPGSLLPTTSAGYHWIPAVLALNERLILQGRSSDKARLPVYMALVGSTLTGRITLYMDKRVRTNYLDPPAYAVHSPYASKPVVARGERLATFNWGSSVVLVMDVPKSCKPLKRPGDVVKAGEALFQF” the “soluble on expression in E. coli” value was “not soluble”.
For “MAHHHHHHMTNKSYPTSLVTTPKVRRKSSEHGTFHNSSPKKKNRDIRDFFTANKCNESVEKSWNNNINKRSYHDSPMNDSPNTTLKFLSKKYKTEIN”, the “soluble on expression in E. coli” value was “soluble”.
For “MAHHHHHHMTPTSAITTSAPATATTAEQTPLPPEQTSMFDAPGTPTPAVSAASARATGAQDSSTLMEGAKTETTKQNLAMKGLDRWMKMQLPADWMECIRQNLQLDKHGQPMHAVTEMKDAIPLLITPLTGDVKFFPYFVCSMDVAVRYHYVIQNERDPDTTAVIDDLQRRFGNSGRLLVVRNRYNRGYSGSMNQAFEWALKERTAEEVPWVFACGVDAIFEPGLLAKMIEVVQQNTRGDAAMLAALRAEVELEERLVREGNYSYYERWAPRGRPLKVLRSGYPGVPLNVRTAPLLPDRIRYTVADENRESGIVRPAELRTRFFGNYVATVTPVPDALGTIAVTRLALSAVGYFDENYFPAYMDDIDLRWRHFAYGFGALHGERNGPVTRWHHYNAANLRGSPFVDPDLEKYGTEDNYSRRAFLSYIRRSKGIYDKLKYGPRDMDGVWRQAAQKAEFKYSSFNVSHYPADTWVLDEDARGCMFHHTYNYKTQNWSRPSDCSYNPRTLEESGILGVDQLASYRSMLAEKAFAYQ”, the “soluble on expression in E. coli” value was “not soluble”.

Reference: the DeepSol protein solubility set
